Paper PMC10786891, “Massively parallel profiling of RNA-targeting CRISPR-Cas13d”

T1: EsCas13d, nuclease-dead (Eubacterium siraeum, UniProt B0MS50, R295A;H300A;R849A;H854A)
T1 sequence: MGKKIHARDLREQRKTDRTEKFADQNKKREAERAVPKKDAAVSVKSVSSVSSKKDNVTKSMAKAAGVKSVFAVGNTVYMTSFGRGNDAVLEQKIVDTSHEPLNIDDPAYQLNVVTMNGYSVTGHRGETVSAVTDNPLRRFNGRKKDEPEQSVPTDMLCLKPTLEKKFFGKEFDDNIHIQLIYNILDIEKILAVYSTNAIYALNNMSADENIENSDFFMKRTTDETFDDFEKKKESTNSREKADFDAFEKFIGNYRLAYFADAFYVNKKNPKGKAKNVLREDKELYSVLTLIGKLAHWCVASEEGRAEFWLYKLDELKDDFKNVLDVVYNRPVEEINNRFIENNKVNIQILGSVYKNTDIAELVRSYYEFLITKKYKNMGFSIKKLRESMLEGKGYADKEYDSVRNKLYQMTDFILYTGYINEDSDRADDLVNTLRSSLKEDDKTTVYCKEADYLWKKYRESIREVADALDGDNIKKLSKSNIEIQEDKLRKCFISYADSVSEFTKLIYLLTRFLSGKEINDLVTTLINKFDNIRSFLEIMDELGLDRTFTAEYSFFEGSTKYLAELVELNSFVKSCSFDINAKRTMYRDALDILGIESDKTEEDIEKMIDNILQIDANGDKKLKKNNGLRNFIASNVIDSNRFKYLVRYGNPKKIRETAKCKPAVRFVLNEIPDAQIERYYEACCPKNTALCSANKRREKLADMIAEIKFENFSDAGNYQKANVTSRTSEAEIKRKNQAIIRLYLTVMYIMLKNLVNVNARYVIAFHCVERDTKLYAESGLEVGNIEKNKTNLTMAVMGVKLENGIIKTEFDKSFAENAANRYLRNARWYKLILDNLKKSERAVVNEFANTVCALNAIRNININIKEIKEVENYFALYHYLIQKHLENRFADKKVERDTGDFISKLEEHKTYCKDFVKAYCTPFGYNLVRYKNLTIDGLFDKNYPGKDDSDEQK


Each binder was assayed against T1, EsCas13d, nuclease-dead (assay: crRNA (strand 1, pre-loaded); Mg2+; 40 mM Tris-HCl pH 7.5, 150 mM NaCl, 6 mM MgCl2, 1 mM DTT, 0.1% Tween-20, 0.2 mg/ml BSA; 25 C; 10 min per concentration, then washed). Settings: tags: His6-TwinStrep-SUMO cleaved; N-terminal SNAP kept (SNAP-Surface 488); label: 3' end held by stalled T7 RNA polymerase.

Binder | Kd [µM]
target 1 insC 3' of 5,insG 3' of 4 (mixed) RNA 1: CACCCGUGCAAAAAUGCAGGGGUCUAAAACUGAGCGGAUAACCUCUCUAUGG RNA 2: GGGAAUGGAUCCACAUCUACGAAUUCGUACCAUAGAGAGGUUAUCCGCCGUCACCGAGAUCGGAAGAGCACACGU | 0.0092 ± 0.0008
target 1 insC 3' of 17,insC 3' of 1 (mixed) RNA 1: CACCCGUGCAAAAAUGCAGGGGUCUAAAACUGAGCGGAUAACCUCUCUAUGG RNA 2: GGGAAUGGAUCCACAUCUACGAAUUCGUACCAUAGCAGAGGUUAUCCGCUCACCCGAGAUCGGAAGAGCACACGU | 0.039 ± 0.004
target 1 insG 3' of 14,insU 3' of 2 (mixed) RNA 1: CACCCGUGCAAAAAUGCAGGGGUCUAAAACUGAGCGGAUAACCUCUCUAUGG RNA 2: GGGAAUGGAUCCACAUCUACGAAUUCGUACCAUAGAGAGGGUUAUCCGCUCUACCGAGAUCGGAAGAGCACACGU | 0.0125 ± 0.0008
target 1 insC 3' of 17,insU 3' of 1 (mixed) RNA 1: CACCCGUGCAAAAAUGCAGGGGUCUAAAACUGAGCGGAUAACCUCUCUAUGG RNA 2: GGGAAUGGAUCCACAUCUACGAAUUCGUACCAUAGCAGAGGUUAUCCGCUCAUCCGAGAUCGGAAGAGCACACGU | 0.066 ± 0.021
target 1 U10A,C22U (mixed) RNA 1: CACCCGUGCAAAAAUGCAGGGGUCUAAAACUGAGCGGAUAACCUCUCUAUGG RNA 2: GGGAAUGGAUCCACAUCUACGAAUUCGUAUCAUAGAGAGGUAAUCCGCUCACCGAGAUCGGAAGAGCACACGU | 0.0208 ± 0.0028
target 1 U8G,G15U (mixed) RNA 1: CACCCGUGCAAAAAUGCAGGGGUCUAAAACUGAGCGGAUAACCUCUCUAUGG RNA 2: GGGAAUGGAUCCACAUCUACGAAUUCGUACCAUAGAUAGGUUAGCCGCUCACCGAGAUCGGAAGAGCACACGU | 0.073 ± 0.012
target 1 insG 3' of 16,insU 3' of 15 (mixed) RNA 1: CACCCGUGCAAAAAUGCAGGGGUCUAAAACUGAGCGGAUAACCUCUCUAUGG RNA 2: GGGAAUGGAUCCACAUCUACGAAUUCGUACCAUAGAGGUAGGUUAUCCGCUCACCGAGAUCGGAAGAGCACACGU | 0.026 ± 0.004
target 1 insC 3' of 20,insG 3' of 19 (mixed) RNA 1: CACCCGUGCAAAAAUGCAGGGGUCUAAAACUGAGCGGAUAACCUCUCUAUGG RNA 2: GGGAAUGGAUCCACAUCUACGAAUUCGUACCACUGAGAGAGGUUAUCCGCUCACCGAGAUCGGAAGAGCACACGU | 0.047 ± 0.007
target 1 insC 3' of 22,insC 3' of 20 (mixed) RNA 1: CACCCGUGCAAAAAUGCAGGGGUCUAAAACUGAGCGGAUAACCUCUCUAUGG RNA 2: GGGAAUGGAUCCACAUCUACGAAUUCGUACCCACUAGAGAGGUUAUCCGCUCACCGAGAUCGGAAGAGCACACGU | 0.0133 ± 0.0017
target 1 C2A,G5U (mixed) RNA 1: CACCCGUGCAAAAAUGCAGGGGUCUAAAACUGAGCGGAUAACCUCUCUAUGG RNA 2: GGGAAUGGAUCCACAUCUACGAAUUCGUACCAUAGAGAGGUUAUCCUCUAACCGAGAUCGGAAGAGCACACGU | 0.024 ± 0.0019
target 1 insA 3' of 10,insA 3' of 7 (mixed) RNA 1: CACCCGUGCAAAAAUGCAGGGGUCUAAAACUGAGCGGAUAACCUCUCUAUGG RNA 2: GGGAAUGGAUCCACAUCUACGAAUUCGUACCAUAGAGAGGUUAAUCACGCUCACCGAGAUCGGAAGAGCACACGU | 0.0104 ± 0.0005
target 1 insA 3' of 17,insG 3' of 8 (mixed) RNA 1: CACCCGUGCAAAAAUGCAGGGGUCUAAAACUGAGCGGAUAACCUCUCUAUGG RNA 2: GGGAAUGGAUCCACAUCUACGAAUUCGUACCAUAGAAGAGGUUAUGCCGCUCACCGAGAUCGGAAGAGCACACGU | 0.0147 ± 0.0017
target 1 insU 3' of 18,insC 3' of 14 (mixed) RNA 1: CACCCGUGCAAAAAUGCAGGGGUCUAAAACUGAGCGGAUAACCUCUCUAUGG RNA 2: GGGAAUGGAUCCACAUCUACGAAUUCGUACCAUAUGAGACGGUUAUCCGCUCACCGAGAUCGGAAGAGCACACGU | 0.073 ± 0.023
target 1 insG 3' of 21,insG 3' of 21 (mixed) RNA 1: CACCCGUGCAAAAAUGCAGGGGUCUAAAACUGAGCGGAUAACCUCUCUAUGG RNA 2: GGGAAUGGAUCCACAUCUACGAAUUCGUACCGGAUAGAGAGGUUAUCCGCUCACCGAGAUCGGAAGAGCACACGU | 0.087 ± 0.024
target 1 U8C,U10C (mixed) RNA 1: CACCCGUGCAAAAAUGCAGGGGUCUAAAACUGAGCGGAUAACCUCUCUAUGG RNA 2: GGGAAUGGAUCCACAUCUACGAAUUCGUACCAUAGAGAGGUCACCCGCUCACCGAGAUCGGAAGAGCACACGU | 0.0224 ± 0.0013
target 1 A9U,U19G (mixed) RNA 1: CACCCGUGCAAAAAUGCAGGGGUCUAAAACUGAGCGGAUAACCUCUCUAUGG RNA 2: GGGAAUGGAUCCACAUCUACGAAUUCGUACCAGAGAGAGGUUUUCCGCUCACCGAGAUCGGAAGAGCACACGU | 0.072 ± 0.009
target 1 insG 3' of 8,insA 3' of 7 (mixed) RNA 1: CACCCGUGCAAAAAUGCAGGGGUCUAAAACUGAGCGGAUAACCUCUCUAUGG RNA 2: GGGAAUGGAUCCACAUCUACGAAUUCGUACCAUAGAGAGGUUAUGCACGCUCACCGAGAUCGGAAGAGCACACGU | 0.0106 ± 0.0006
target 1 insA 3' of 22,insC 3' of 10 (mixed) RNA 1: CACCCGUGCAAAAAUGCAGGGGUCUAAAACUGAGCGGAUAACCUCUCUAUGG RNA 2: GGGAAUGGAUCCACAUCUACGAAUUCGUACACAUAGAGAGGUUCAUCCGCUCACCGAGAUCGGAAGAGCACACGU | 0.029 ± 0.004
target 1 C4A,C22G (mixed) RNA 1: CACCCGUGCAAAAAUGCAGGGGUCUAAAACUGAGCGGAUAACCUCUCUAUGG RNA 2: GGGAAUGGAUCCACAUCUACGAAUUCGUAGCAUAGAGAGGUUAUCCGAUCACCGAGAUCGGAAGAGCACACGU | 0.025 ± 0.008
target 1 insG 3' of 14,insA 3' of 12 (mixed) RNA 1: CACCCGUGCAAAAAUGCAGGGGUCUAAAACUGAGCGGAUAACCUCUCUAUGG RNA 2: GGGAAUGGAUCCACAUCUACGAAUUCGUACCAUAGAGAGGGAUUAUCCGCUCACCGAGAUCGGAAGAGCACACGU | 0.0237 ± 0.0017
target 1 insG 3' of 16,insG 3' of 2 (mixed) RNA 1: CACCCGUGCAAAAAUGCAGGGGUCUAAAACUGAGCGGAUAACCUCUCUAUGG RNA 2: GGGAAUGGAUCCACAUCUACGAAUUCGUACCAUAGAGGAGGUUAUCCGCUCGACCGAGAUCGGAAGAGCACACGU | 0.0144 ± 0.0025
target 1 C2G,U19A (mixed) RNA 1: CACCCGUGCAAAAAUGCAGGGGUCUAAAACUGAGCGGAUAACCUCUCUAUGG RNA 2: GGGAAUGGAUCCACAUCUACGAAUUCGUACCAAAGAGAGGUUAUCCGCUGACCGAGAUCGGAAGAGCACACGU | 0.0249 ± 0.0027
target 1 G12A,A14C (mixed) RNA 1: CACCCGUGCAAAAAUGCAGGGGUCUAAAACUGAGCGGAUAACCUCUCUAUGG RNA 2: GGGAAUGGAUCCACAUCUACGAAUUCGUACCAUAGAGCGAUUAUCCGCUCACCGAGAUCGGAAGAGCACACGU | 0.0305 ± 0.0026
target 1 insG 3' of 21,insA 3' of 19 (mixed) RNA 1: CACCCGUGCAAAAAUGCAGGGGUCUAAAACUGAGCGGAUAACCUCUCUAUGG RNA 2: GGGAAUGGAUCCACAUCUACGAAUUCGUACCGAUAAGAGAGGUUAUCCGCUCACCGAGAUCGGAAGAGCACACGU | 0.064 ± 0.015
target 1 insC 3' of 12,insG 3' of 11 (mixed) RNA 1: CACCCGUGCAAAAAUGCAGGGGUCUAAAACUGAGCGGAUAACCUCUCUAUGG RNA 2: GGGAAUGGAUCCACAUCUACGAAUUCGUACCAUAGAGAGGCUGUAUCCGCUCACCGAGAUCGGAAGAGCACACGU | 0.0117 ± 0.0008
target 1 insU 3' of 9,insA 3' of 7 (mixed) RNA 1: CACCCGUGCAAAAAUGCAGGGGUCUAAAACUGAGCGGAUAACCUCUCUAUGG RNA 2: GGGAAUGGAUCCACAUCUACGAAUUCGUACCAUAGAGAGGUUAUUCACGCUCACCGAGAUCGGAAGAGCACACGU | 0.0095 ± 0.0004
target 1 G12U,U19C (mixed) RNA 1: CACCCGUGCAAAAAUGCAGGGGUCUAAAACUGAGCGGAUAACCUCUCUAUGG RNA 2: GGGAAUGGAUCCACAUCUACGAAUUCGUACCACAGAGAGUUUAUCCGCUCACCGAGAUCGGAAGAGCACACGU | 0.042 ± 0.006
target 1 insU 3' of 12,insA 3' of 11 (mixed) RNA 1: CACCCGUGCAAAAAUGCAGGGGUCUAAAACUGAGCGGAUAACCUCUCUAUGG RNA 2: GGGAAUGGAUCCACAUCUACGAAUUCGUACCAUAGAGAGGUUAUAUCCGCUCACCGAGAUCGGAAGAGCACACGU | 0.013 ± 0.0009
